Paper PMC2415180 (BMC Biotechnology, 2008)

Assays:
[1] = target: BChE/hSA fusion protein (recombinant human butyrylcholinesterase fused to human serum albumin) in the milk of transgenic goats (human) (UniProt P06276); test: SEC + native gel or EMSA
[2] = target: BChE/hSA fusion protein (recombinant human butyrylcholinesterase fused to human serum albumin) in the milk of transgenic mice (human) (UniProt P06276); test: SEC + native gel or EMSA
SEC = target: the molecule itself; test: SEC

With “BChE/hSA fusion protein (recombinant human butyrylcholinesterase fused to human serum albumin) in the milk of transgenic goats (from UniProt P06276 29-602; P02768 25-609) (enzyme)” the stoichiometry N [1] was 2.

“BChE/hSA fusion protein (recombinant human butyrylcholinesterase fused to human serum albumin) in the milk of transgenic mice (from UniProt P06276 29-602; P02768 25-609) (enzyme)” gave a stoichiometry N [2] of 2.

B1: recombinant human butyrylcholinesterase produced transgenically in goat milk, tetramer-enriched preparation (>70% tetramer) (enzyme, UniProt P06276 29-602, looked up)
chain: EDDIIIATKNGKVRGMNLTVFGGTVTAFLGIPYAQPPLGRLRFKKPQSLTKWSDIWNATKYANSCCQNIDQSFPGFHGSEMWNPNTDLSEDCLYLNVWIPAPKPKNATVLIWIYGGGFQTGTSSLHVYDGKFLARVERVIVVSMNYRVGALGFLALPGNPEAPGNMGLFDQQLALQWVQKNIAAFGGNPKSVTLFGESAGAASVSLHLLSPGSHSLFTRAILQSGSFNAPWAVTSLYEARNRTLNLAKLTGCSRENETEIIKCLRNKDPQEILLNEAFVVPYGTPLSVNFGPTVDGDFLTDMPDILLELGQFKKTQILVGVNKDEGTAFLVYGAPGFSKDNNSIITRKEFQEGLKIFFPGVSEFGKESILFHYTDWVDDQRPENYREALGDVVGDYNFICPALEFTKKFSEWGNNAFFYYFEHRSSKLPWPEWMGVMHGYEIEFVFGLPLERRDNYTKAEEILSRSIVKRWANFAKYGNPNETQNNSTSWPVFKSTEQKYLTLNTESTRIMTKLRAQQCRFWTSFFPKVLEMTGNIDEAEWEWKAGFHRWNNYMMDWKNQFNDYTSKKESCVGL
notes: also called tetramer-enriched BChE; BChE produced transgenically (>70% tetramer)
B1 was tested, and the “stoichiometry N” value (SEC) was 4.
